Molecular target: fusion of human collagen type I, alpha 1 solubility-enhancing sequence (HsCol1a1-27), TEV cleavage site ENLYFQG and human keratin type 31 polypeptide fragment (K31)

B1: AcTEV protease (protein)
chain: GESLFKGPRDYNPISSTICHLTNESDGHTTSLYGIGFGPFIITNKHLFRRNNGTLLVQSLHGVFKVKNTTTLQQHLIDGRDMIIIRMPKDFPPFPQKLKFREPQREERICLVTTNFQTKSMSSMVSDTSCTFPSSDGIFWKHWIQTKDGQCGSPLVSTRDGFIVGIHSASNFTNTNNYFTSVPKNFMELLTNQEAQQWVSGWRLNADSVLWGGHKVFMSKPEEPFQPVKEATQLMNELVYSQ
- cleavage of the fusion protein, SDS-PAGE with Coomassie Blue: confirm that the cleavage was successful
